Data reported in PMC5384220.

Target: T1, N-terminally Hexa-His-tagged KDM4A (residues 1–359) (human) (UniProt O75164)
T1 sequence: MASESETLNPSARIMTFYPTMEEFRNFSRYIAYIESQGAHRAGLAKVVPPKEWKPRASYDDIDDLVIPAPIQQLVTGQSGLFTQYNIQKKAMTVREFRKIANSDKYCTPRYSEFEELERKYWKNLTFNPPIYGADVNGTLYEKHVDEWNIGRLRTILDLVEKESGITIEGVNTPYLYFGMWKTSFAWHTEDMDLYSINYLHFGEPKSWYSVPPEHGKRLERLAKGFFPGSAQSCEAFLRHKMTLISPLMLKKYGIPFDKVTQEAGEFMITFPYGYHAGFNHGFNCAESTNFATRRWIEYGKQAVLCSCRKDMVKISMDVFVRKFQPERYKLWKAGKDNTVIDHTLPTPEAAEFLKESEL

IC50 of inhibition of demethylase activity (AlphaScreen method): 40 nM
B1: PolyR (Arg)9 peptide (peptide)
peptide: RRRRRRRRR
